The assay addresses T1, mouse ICOS, full length, on cells (mouse, UniProt Q9WVS0 21-200).
T1 construct: also called CHO-mICOS; mouse ICOS+ CHO cells
T1 sequence: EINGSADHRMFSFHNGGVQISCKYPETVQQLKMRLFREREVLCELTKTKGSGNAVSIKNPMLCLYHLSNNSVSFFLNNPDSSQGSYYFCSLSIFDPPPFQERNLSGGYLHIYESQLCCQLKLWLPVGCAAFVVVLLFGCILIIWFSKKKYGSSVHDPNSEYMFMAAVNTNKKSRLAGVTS
Briefly: receptor availability assay, flow cytometry on mouse blood T cells after 2.5 mg/kg i.p. The method, then:
ICOS target engagement may also be assessed as measured by receptor availability assay, for example, as follows. Naive mice were i.p. injected with either the isotype control mIgG2a at 2.5 mg/kg or […] with a mouse IgG2a at 2.5 mg/kg. At various time-points post-injection, blood was collected in EDTA coated microtubes via submandibular draw.
Whole blood was Fc blocked using mouse TruStain (BioLegend) for 5 minutes on ice. Following incubation, 100 μl of 2× concentrated extracellular staining antibody mixture was added to each sample for 30 minutes at 4° C. Samples were spun down and fixed and permeabilized in Foxp3 staining buffer (eBioSciences) for 30 minutes at 4° C. Samples were then spun down and resuspended in intracellular antibody stain for 30 minutes at 4° C. Samples were spun down and resuspended in 0.1% PFA. Samples were analyzed on a BD LSRII Fortessa. Tregs were identified as live CD45+ CD3+ CD4+ FoxP3+. Teff cells were identified as live CD45+ CD3+ CD4+ FoxP3−. CD8+ cells were identified as live CD45+ CD3+ CD8+. Fluorescently labeled 37A10S713-mG2a (DyLight 650 conjugated) was used as the staining reagent for ICOS. Receptor availability at each time point was determined using the following formula: […]
(In flow cytometry, cells or beads pass a laser one at a time.)

B1: 37A10S713-mG2a (antibody, V domains shown)
VH: EVQLVESGGGLVQPGGSLRLSCAASGFTFSDYWMDWVRQAPGKGLVWVSNIDEDGSITEYSPFVKGRFTISRDNAKNTLYLQMNSLRAEDTAVYYCTRWGRFGFDSWGQGTLVTVSS
VL: DIVMTQSPDSLAVSLGERATINCKSSQSLLSGSFNYLTWYQQKPGQPPKLLIFYASTRHTGVPDRFSGSGSGTDFTLTISSLQAEDVAVYYCHHHYNAPPTFGPGTKVDIK
notes: 37A10S713 VH and VL with a mouse IgG2a; also called 37A10S713 with a mouse IgG2a; 37A10S713-mIgG2a
B1: the binding result is recorded as “binds”.
